Laboratory results reported in PMC13480645.

Biological target: MERS-CoV S2 stem helix peptide (MERS-CoV)
Test: BLI

S2P6 (antibody), sequence (VH): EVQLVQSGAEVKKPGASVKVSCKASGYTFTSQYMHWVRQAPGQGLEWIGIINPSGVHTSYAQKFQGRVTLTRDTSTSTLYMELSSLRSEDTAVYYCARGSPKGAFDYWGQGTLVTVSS
S2P6 (antibody), sequence (VL): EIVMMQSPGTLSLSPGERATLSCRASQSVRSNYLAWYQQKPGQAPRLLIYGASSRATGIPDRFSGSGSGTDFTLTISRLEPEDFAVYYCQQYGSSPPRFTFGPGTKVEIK

## S2P6 (antibody)
  Kd: 0.723 nM
  kon: 315000 M⁻¹ s⁻¹
